B1: Gibberellin receptor GID1 (Oryza sativa subsp. japonica (Rice)), Q6L545 (parent)
chain: MAGSDEVNRNECKTVVPLHTWVLISNFKLSYNILRRADGTFERDLGEYLDRRVPANARPLEGVSSFDHIIDQSVGLEVRIYRAAAEGDAEEGAAAVTRPILEFLTDAPAAEPFPVIIFFHGGSFVHSSASSTIYDSLCRRFVKLSKGVVVSVNYRRAPEHRYPCAYDDGWTALKWVMSQPFMRSGGDAQARVFLSGDSSGGNIAHHVAVRAADEGVKVCGNILLNAMFGGTERTESERRLDGKYFVTLQDRDWYWKAYLPEDADRDHPACNPFGPNGRRLGGLPFAKSLIIVSGLDLTCDRQLAYADALREDGHHVKVVQCENATVGFYLLPNTVHYHEVMEEISDFLNANLYY
partner: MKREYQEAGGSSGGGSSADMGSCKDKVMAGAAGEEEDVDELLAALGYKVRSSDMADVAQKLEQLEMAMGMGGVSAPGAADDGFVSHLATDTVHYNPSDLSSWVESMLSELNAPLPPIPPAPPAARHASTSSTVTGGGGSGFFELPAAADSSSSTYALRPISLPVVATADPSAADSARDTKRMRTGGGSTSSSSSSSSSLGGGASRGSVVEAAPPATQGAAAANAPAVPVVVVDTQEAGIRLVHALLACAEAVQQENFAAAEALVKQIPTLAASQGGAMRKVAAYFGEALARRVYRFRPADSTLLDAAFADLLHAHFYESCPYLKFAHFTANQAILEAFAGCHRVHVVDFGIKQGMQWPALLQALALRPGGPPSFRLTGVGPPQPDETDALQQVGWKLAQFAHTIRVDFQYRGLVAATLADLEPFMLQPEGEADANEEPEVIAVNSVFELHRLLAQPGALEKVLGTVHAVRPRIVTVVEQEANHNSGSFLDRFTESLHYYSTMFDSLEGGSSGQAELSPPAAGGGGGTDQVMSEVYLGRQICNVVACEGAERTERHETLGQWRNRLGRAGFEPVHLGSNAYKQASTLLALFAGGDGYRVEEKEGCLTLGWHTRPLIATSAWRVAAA

Variants of: B1
Details: with slr1_orysj SLR1, Q7G7J6

effect of a mutation on the interaction | Variant
disrupting interaction | MAGSDEVNRNECKTVVPAHTAVLISNFKASYNALRRADGTFERDAGEALDRRVPANARPLEGVSSFDHIIDQSVGLEVRIYRAAAEGDAEEGAAAVTRPILEFLTDAPAAEPFPVIIFFHGGSFVHSSASSTIYDSLCRRFVKLSKGVVVSVNYRRAPEHRYPCAYDDGWTALKWVMSQPFMRSGGDAQARVFLSGDSSGGNIAHHVAVRAADEGVKVCGNILLNAMFGGTERTESERRLDGKYFVTLQDRDWYWKAYLPEDADRDHPACNPFGPNGRRLGGLPFAKSLIIVSGLDLTCDRQLAYADALREDGHHVKVVQCENATVGFYLLPNTVHYHEVMEEISDFLNANLYY [L18A;W21A;L29A;I33A;L45A;Y48A]
